B1: KRT18 (parent)
chain: PQVRDWSHYFKIIEDLRAQIFANT

Variants of: B1
Test: protein stability index of a GFP-peptide fusion (GPS, HEK-293T) (PSI 1-6); higher = more stable
Conditions: c terminus: a fixed tail appended
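Further: lentivirally expressed fusions sorted by FACS into six bins by GFP to DsRed ratio, PSI derived from sequencing read proportions per bin multiplied by bin number.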

Protein stability index, by site and new letter:
Q2: P 3.51; C 2.67; L 3.67; F 2.55; T 2.31; W 1.82; V 3.24
F10: L 2.17; C 2.25; I 2.23; W 2.7; T 3.01; Q 3.22
D5: P 1.87; R 3.09; A 2.93; M 2.57; K 3.2; Q 2.44; S 2.5; L 2.88
W6: G 2.14; Y 2.13; T 3.16; Q 2.41; A 1.69; F 2.3; P 2.21; N 2.18; L 2.22; C 1.88
Y9: F 1.94; R 2.25; Q 2.42; A 2.24; S 2.56; H 2.5; P 2.36; M 1.89
P1: C 2.3; M 2.12; E 2.13; T 2.25; S 2.02; Y 2.22; N 2.5; L 1.73; W 2.86; G 1.94
I20: T 2.83; A 2.07; Y 2.16; P 1.91; V 2.08; C 1.86
S7: I 2.13; V 2.53; N 2.08; G 3.02; P 2.23; Y 1.61; T 2.82; C 1.94
A18: G 1.9; T 1.48; Q 2.02; M 1.81; D 2.44; K 2.68
I12: M 1.92; P 2.24; W 3.05; Q 2.41; N 3.55; K 1.85; G 2.72; A 2.53; R 2.55; F 1.9; T 2.78; V 2.04; E 2.45
N23: F 1.22; V 2.08; C 2.36; R 2.57; M 2.1; I 1.93
A22: Q 2.72; G 2.51; F 1.8; E 2.12
Q19: V 1.59; K 2.12; D 2.49; R 2.45; Y 1.65; T 2.8; H 2.09; E 2.62; N 2.56; M 1.89
D15: Y 3.62; Q 1.71; T 1.78; K 3.02; E 2.28; H 1.57; M 2.87; W 1.61
I13: M 1.62; E 2.32; K 1.79; C 2.3; P 2.63; S 2.15; A 2.77; D 2.9; F 2.12; N 2.38; Y 1.72
T24: P 2.84; S 2.31; D 2.75; E 3.47; M 2.81; G 2.5; H 2.43; K 2.53; C 2.02
H8: A 2.06; S 2.23; Y 2.08; I 2.4; L 2.43; T 1.6; P 1.83
R17: S 2.02
E14: T 2; M 2.32; V 2.11; D 2.28; H 2.69; A 2
R4: C 1.99; A 3.02; Q 2.53; N 2.63; T 2.13; H 2.25; M 2.69; K 2.29; S 2.61
F21: P 2.15; L 2.7; N 2.46; V 2.39; W 1.84; G 2.52; C 1.97; K 2.98; Q 2.46
K11: E 1.52; R 2.11; D 1.84; C 2.12; I 2.25

Source: the supplement of paper PMC10567573
